According to the nanobody polyreactivity screen of Harvey et al. (2022):

Assay: yeast display, Sf9 membrane polyspecificity reagent, FACS + sequencing; frameworks hold sequencing errors
Summary of the method: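 Genes from sorted yeast were amplified by colony PCR, read by MiSeq 2 × 250 sequencing and filtered on CDR length. These cells carried a synthetic nanobody library in Saccharomyces cerevisiae BJ5465 and were sorted by FACS into low and high (top ~1%) gates on anti-HA and streptavidin fluorescence. Polyreactivity is labelled according to the gate of origin.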

Row | Sequence | polyreactivity (PSR sort gate)
1 | QVHLVESGGGLVQAGGSLRLTCAASGRTFGRYAMGWYRQAPGKERELVAAIRYTGGSTYADSVKGRFTISRDNAKNTVYLQMNSLKPEDTAVYYCNRGGAFNTRNEITRYGYWGQVTQVTVSS | low polyreactivity
2 | QVHLVESGGGLVQAGGSLRLTCAASGRTFGWNVMGWYRQAPGKERELVAAISGSGGSTYYADSVKGRFTISRDNAKNTVYLQMNSLKPEDTAVYYCAALYGPGREYDYWGQGTQVTVSS | low polyreactivity
3 | QVHLVESGGGLVQAGGSLSLSCDASGRTFYENAMGWYRQAPGKERELVAAISQSSGSTYYADSVKGRFTISRDNAKNTVYLQMNSLKPEDTAVYYCAAVQGANYYNEFDYWGQGTQVTVSS | high polyreactivity
4 | QVHLVESGGGLVQAGGSQRLSCAASGSIFKYYAKAWYRQQPGKERELVATITNGGNTNYADSVYGRFTISRDNPKKTVYLQRNSLKPEDTAVYYCAARLWCKRYSSPTSLQRYDYWRQGTQVTVSS | high polyreactivity
5 | QVHLVESGGGLVQAGGTLRLSCAASGSIFATYGMGSYRQAPGKERELVAAITSSGGSTYYADSVKGRFTISRDHAKNTVYLQMNSLKPEDTAVYYFAADSYIIWYGSVVSYGEDSWGQGTQVTVSS | low polyreactivity
6 | QVHLVESGGGLVQEGGSLPLTCAASGSTLRYYDMGWYRQPPRKERELFAAITTSGDDTYYADSVKRLFTISRDNAKYIVYLQMNSLKPEDTAVYYCAADGYGGHKYELESWGQGTQVTVSS | low polyreactivity
7 | QVHLVESGGGLVQEGGSLRISCAASGSSFSHYTMGWYIQAPGKERELVAAISYRGGSTYYADSLKGRFTISRDNAKNTVYFQSNSLKPEDTAVYYCAAVGYYSTVRRYDYWGQRTQVTVSS | low polyreactivity
8 | QVHLVESGGGLVQEGGSLRLSCAASGIIFLWYTMGWYRQAPGKERELVATISWGGGSTYADSVNGRFTISRDNAKNTVYIQMYILQPEDTAVYYCAADNRDFRGQGYDYWGQGTQVTVSS | low polyreactivity
9 | QVHLVESGGGLVQEGGSLRLSCPACGSTIRGNAMGWYRQAPGKERELVADITRNGGRTYYADSVKGRFTISRDNAKNNVYLQMNSLKPEDTAVYYCAKRDAYCVTQRNMDYWGQGTQVTVSS | high polyreactivity
10 | QVHLVESGGVLVQAGGSLRLSCAASGSTFLYYAMGRYRQAPGKEREFVASISGSGGSTNYADSVKGRFTISRDNAKNTVSLQMNSLKPEDTAVYYCAKEYVTEFQGYYDWGQGSQVTVSS | low polyreactivity
11 | QVHLVESGGVLVQAGGSLSLSCAASGRTFIRNAMGWYRQAPGKERELVAAINSGGITNYADSVKGRFTISRDNAKNTVYLQMNSLKPEDTAVYYCNARQVLYGLYLRAYPYEYWGQGTQVTVSS | low polyreactivity
12 | QVHLVESGVGLVQAGGSLRLSCAAYGSTCGWYAMGWYRQAPGKERELVASITWDGGRTYYADSVKGRFTISRDNAKNTVYLQMISQKPEDTAVYYCAARGVSSPLNYWGQGNQVTVSS | low polyreactivity
13 | QVHLVESRGGLVQAGGSLRLSCAASGMGWNRHAPGKERELVATIPWSDGITYADSVKGRFTISRDNAKNTVYLQMNSLKQEVTAVYYCNADWDQTGTVFFSFGLREMDSWGQGTQVTVSS | low polyreactivity
14 | QVHLVESRGVLVQAGGSLRLSCAASGFTFNRNAMGWYRQAPGKERELVAAISTSGGRTYYADSVKGRFTISRDNAKNTVYLHMNSLKPEDTAVYYCAADGIYPVGVDYWGQGTQVTVSS | high polyreactivity
15 | QVHLVESRGVLVQAGGSLRLSCAASGRTFQPYAMGWYRQSPGKERELVADITWNTGRTYYADSVKGRFTISRDNAKNTVYLQMNSLIPEDTAVYYCAGDDLGDYRFYKIYDYWGQGTQVTVSS | high polyreactivity
16 | QVHLVESVGGLDQAGGSLRLSCAASGFIFVRYAMGWYRQAHGKEREFVAVISRRGGSTHYADSVKARFTISRDNAKNTVYLQMNSLKPEDTAVYYCNVRQGGPTVTWEYDYWGQGTQGTVSS | high polyreactivity

Row | Sequence | polyreactivity (PSR sort gate)
17 | QVHLVESVGGLVQAGGSLRLSCAASGFIFNRNAMGRYRQAPGKERELVAAITRAGSTSYADSVKGRFTISRDNAKNTVYLQMNSLKPEDTGVYYCAAKPFWLYAPRGWRYHYGYWGQGTQVTVSS | high polyreactivity
18 | QVHLVESVGGLVQAGGSLRLSCAASGRTFGGYAMGWYRQAHGKERELVAAIRRSGGSTYYADSVKGRFTISRDNAKNTVYLQMNSVKPEDTAVYYCAASGIYNVRMYYWGQGTLVTVSS | high polyreactivity
19 | QVHLVESWGCLVQAGGSLRLSCAASGSTFTGYAMGWYRHAPGKESEMVAAISRSGGSTSAADSVKGRFTISRDNAKNTVYLQMNSLKPEDTAVYYCAAQVQGTTRDKQRGGIGELDYWGQGTQVTVSS | low polyreactivity
20 | QVHLVESWGGLVQAGGSLRLSCAASGSTFSDYAMGWYRQAPGKERELVAGITGGGGTYYADSVKGRFTISRDNAKNTVSLHMNSLTPEDTARYYCAAGRRHGFGYWGQGTQVTVSS | low polyreactivity
21 | QVHLVETGGGLVQAGGSLRLSCAASGSTFSFNAMGWYRQAPGKERELVAAISTSGGDTYYADSVKGRFTISRDNAKNTVYLQMNSLKPEDTAVYYCAAEYQVPGGSWMDYWGQGTQVTVSS | high polyreactivity
22 | QVHLVQSGGGIVQAGGSLRLSCAASGIIIRRYVMGWYRQAPGKERELVATISSSGGSTYYADSVKGRFTISRDNAKTTVYLQMNSLKPEDTAVYYCAVRYYGSGRYYYTYYSWGQGTQVTVSS | high polyreactivity
23 | QVHRGESGGGLVQAGGSLRLSCPASGFIFRYYPMGWYRQAPGKESELVASISYSGGTTYYADSVKGRFTISRDNAKNTVYLQMNSLKPEDTAVYYCNVYSRTHYQTYTDDYWGQGTQVTVSS | high polyreactivity
24 | QVKHVESGGGLVQAGGSLRLSCAASGFTFYTYAMGWYRQKPGKESELVATISSGGRTNYADSVKGRFTISRDNAKNTVYLQMNSLKPEDTAVYYCYKRHRGGAVRFDSWGQGTQVTVSS | low polyreactivity
25 | QVKHVESVGGLVQAGGSLRLSCAASGITFVRNAMGWSRQAPGKETDLVAAISSGGGSTYYADSVKGRFTISRDNAKNTVYLQMNSLKPEDTAVYYCNAQGFIYYWLRYDYWGQGTQVTVSS | high polyreactivity
26 | QVKILESGGGLVQAVCSLRLSCASGSTYLYAMGRYRQAPVKEREMVATISSTGSTYYADSVKGRFTISRDNAKNTVYLQMNSLKPEDTAVYYCAADVCNNGWIYGSYDEYDYWGQGTQVTVSS | high polyreactivity
27 | QVKLEESGGGLVQAGGSLRLSCAASGFIFGSYAMGWYRQAPGKERELVAVISSSGGRTYYADSVKGRFTISRDNAKNTVYLQMNSLKPEDTAVYYCAAPWIARKYSPSEYDWGQGTQVTVSS | high polyreactivity
28 | QVKLVDSGVGLVQAGVSLRLSCAASGSIFGTYAMGWYRQAPGKERELVAAISYRGTSTYYADSVKGRFTISRDNAKNTVYLQMNSLKPEDTAVYYCAARHGYTYRSGYYYWGQGTQVTVSS | high polyreactivity
29 | QVKLVESAGGLVQAGASLRLSCAPSGITFKRYAMGWSSQQPGKQSELVAAITSGGSTHYADSVKGRFTISRDNAKNTVYLQMNTLKPEDTAVYYCATRRYKWGVRYDYWGQGTQVTVSS | high polyreactivity
30 | QVKLVESAGGLVQAGGSLRLSCPASGRTFYRYVMGWSRQEPGKERELVAAITPGGSTYADSVKGRFTISRDNAKNTVYLQMNSLKPEDTAVYYCNKRKASSSGYNYWGQGTQVTVSS | low polyreactivity
31 | QVKLVESCGGLVQAGGSLRLSCAASGFIFRNYAMGWYRQARGKERELVAAIDYSVGSTNYADSVKWRFTISRDNAKNTVYLQMNSLKPEDTAVYYCNAEYTWHRGYDYFGQGTQVTVSS | low polyreactivity
